Test results: article doi:10.1101/2025.03.15.643416

Biological target: MMLVRT-WT (Moloney murine leukemia virus, UniProt P03355 660-1330)
Test: DSF thermal shift

B1: T/P (RNA template/DNA primer) (DNA:RNA)
DNA: TGGAATCAGGTGTCGCACTCTG
RNA: AACAGAGUGCGACACCUGAUUCCAU
binding result: binds
